Experimental data published in paper PMC5756609.

Target: FcγR (on DIV 7 primary rat hippocampal cells, Erk phosphorylation assay)

IgG immune complex (IgG-IC): pre-complexed mouse IgG and rat anti-mouse IgG, 1:1 ratio (w/w)
ratio of pErk to Erk (western blot, percentage of vehicle controls) in DIV 7 hippocampal cell cultures exposed for 30 min to IgG-IC at 10 or 100 μg/ml; increased at 10 μg/ml but not at 100 μg/ml: 60.4
